Test results reported in article PMC5181381.

Legend:
[1] = molecular target: truncated form of turkey β1-adrenergic receptor, β1AR^∆NC (turkey) (UniProt P07700)
[2] = molecular target: truncated form of turkey β1-adrenergic receptor, β1AR^∆NC (turkey) (UniProt P07700); test: SEC; purified β1AR^∆NC in LMNG mixed with a 1.2-fold molar excess of mini-Gs393, on ice 4 h; Superdex-200 10/300; 10 mM HEPES pH 7.5, 100 mM NaCl, 1 mM MgCl2, 1 μM ascorbic acid, 1 μM isoprenaline, 0.002% LMNG; peak fractions analysed by SDS-PAGE
[3] = molecular target: non-lipidated Gβ1γ2 dimer (UniProt P62873); test: SEC; purified mini-Gs399 mixed with non-lipidated Gβ1γ2 dimer in an equimolar ratio, on ice 4 h; Superdex-200 10/300; 10 mM HEPES pH 7.5, 100 mM NaCl, 1 mM MgCl2, 1 μM GDP, 0.1 mM TCEP
[4] = molecular target: truncated form of turkey β1-adrenergic receptor, β1AR^∆NC (turkey) (UniProt P07700); remark: listed apart in the source
[5] = molecular target: minimally thermostabilised turkey β1AR construct β1AR-84 (turkey) (UniProt P07700)

Row | Apparent Tm of β1AR^∆NC in DDM, measured by ^3H-NE binding (°C) [1] [°C] | stoichiometry N [2] | stoichiometry N [3] | fold shift of the isoprenaline affinity of membrane-embedded β1AR^∆NC (competition with 3H-DHA, 25 μM binding partner, 20°C) [4] [fold] | fold increase of the isoprenaline affinity of membrane-embedded β1AR-84 (competition with 3H-DHA, 25 μM binding partner, 20°C) [5] [fold] | Substance
1 | 34.1 | 1 | – | – | – | Mini-Gs393 (final mini-Gs construct) (domain or fragment)
2 | – | – | 1 | – | – | mini-Gs399 (domain or fragment)
3 | 35.8 | – | – | 6 | 162 | soluble heterotrimeric Gs in the presence of the nanobody Nb35 (from UniProt P63092 1-394; P62873 1-340; P59768 1-71) (complex)
